Test results taken from patent publication US20120328590A1.

Target: actin (endogenous nuclear and cytoplasmic actin of Mel-Juso human melanoma cells) (human)
Assay: cell-based or functional assay

Row | Substance | TUNEL-positive (apoptotic) cells by laser scanning cytometry, mean | cell survival in Colony Forming Assay (CFA), compared to Cat-GFP control
1 | DNase 1 construct C11 (signal peptide deleted, A114F actin-binding-site mutation, SV-40 NLS at the C-terminus) (from UniProt P24855 23-282) (enzyme) | 11% | 23.2%
2 | DNase 1 construct C13 (signal peptide deleted, A114F actin-binding-site mutation, SV-40 NLS at the N-terminus) (from UniProt P24855 23-282) (enzyme) | 5.4% | 32.4%
